From patent publication US6713249B2, “Cell matrix plaques of initial bone formation” (Barnes-Jewish Hospital, priority 1998, dated 2004)

System: αvβ3 integrin plaque-like cell/matrix areas in human preosteoblasts
Assay: Immunocytochemical localization of cell surface αvβ3 integrin plaques in non-permeabilized cells
Format: cell-based
Settings: bone marrow stromal cells in osteogenic medium with 40 ng/ml OP-1 for 48 hours, non-strained, no Triton X-100; compare FIG. 1C with FIG. 2C
Experimental: Bone marrow stromal cells grown to semi-confluence and then exposed to osteogenic medium containing 10 mM of β-glycerophosphate, 50 μg/ml ascorbic acid and 40 ng/ml of osteogenic protein OP-1(32) also referred to as bone morphogenetic protein-7 (BMP-7), for 48 hours were defined as preosteoblasts. These preosteoblast cultures are characterized by alkaline phosphatase activity of 80,000 nmole pNPP/min./μg protein, osteopontin expression, absence of osteocalcin expression, and mineralization after 14 days in osteogenic media. […]
Immunocytochemical analysis essentially was performed as previously described (34). […] The results were analyzed either on Zeiss Fluorescent Microscope (Axioscope) using a 63× oil immersion lens or on a Zeiss laser confocal microscope using a 63× lens. […]
In order to examine whether mechanical strain has a qualitative and/or quantitative effect on the localization and expression level of integrins, near-confluent human preosteoblasts and osteoprogenitors were strained on Flexcell Strain Apparatus, as described in Methods. […] In the presence of Triton X-100, which leads to cell permeabilization and thus, allows examination of the distribution of intracellular as well as cell surface molecules, the αvβ3 integrin, as detected by an anti-human αvβ3 antibody, was localized along actin fibers and in small, granular structures adjacent to actin fibers (FIGS. 1A, 1B, 2A and 2B). […]

B1: OP-1: osteogenic protein OP-1, also referred to as bone morphogenetic protein-7 (BMP-7), component of the osteogenic medium (protein, UniProt P18075 293-431, looked up)
Bone morphogenetic protein 7: STGSKQRSQNRSKTPKNQEALRMANVAENSSSDQRQACKKHELYVSFRDLGWQDWIIAPEGYAAYYCEGECAFPLNSYMNATNHAIVQTLVHFINPETVPKPCCAPTQLNAISVLYFDDSSNVILKKYRNMVVRACGCH
B1 was tested. Which “number of the plaque-like cell/matrix areas of the αvβ3 expression” value did it give?
The value was “stimulation”.
